Test results published in patent US20240294623A1 (SCHOLAR ROCK, published 2024).
Substitutions are numbered along the chain they refer to. Each block holds one binder with its values, some of them ahead of it.

Key:
[1] = biological target: T1, hLTBP1-proTGFβ1 (human, UniProt Q14766 347-1721; P01137 30-390, limits assumed); assay: MSD-SET, hIgG4
T1 construct: Large latent complex (LLC): proTGFβ1 dimer disulfide-linked to one presenting molecule; recombinant, purified, biotinylated in BLI/SPR; The same id is used for the complex made by transfected cells in the reporter assays; also called human LTBP1-proTGFβ1 complex; LTBP1-ProTGFb1
T1 sequence (Q14766 347-1721 limits assumed, chain 1 of 2): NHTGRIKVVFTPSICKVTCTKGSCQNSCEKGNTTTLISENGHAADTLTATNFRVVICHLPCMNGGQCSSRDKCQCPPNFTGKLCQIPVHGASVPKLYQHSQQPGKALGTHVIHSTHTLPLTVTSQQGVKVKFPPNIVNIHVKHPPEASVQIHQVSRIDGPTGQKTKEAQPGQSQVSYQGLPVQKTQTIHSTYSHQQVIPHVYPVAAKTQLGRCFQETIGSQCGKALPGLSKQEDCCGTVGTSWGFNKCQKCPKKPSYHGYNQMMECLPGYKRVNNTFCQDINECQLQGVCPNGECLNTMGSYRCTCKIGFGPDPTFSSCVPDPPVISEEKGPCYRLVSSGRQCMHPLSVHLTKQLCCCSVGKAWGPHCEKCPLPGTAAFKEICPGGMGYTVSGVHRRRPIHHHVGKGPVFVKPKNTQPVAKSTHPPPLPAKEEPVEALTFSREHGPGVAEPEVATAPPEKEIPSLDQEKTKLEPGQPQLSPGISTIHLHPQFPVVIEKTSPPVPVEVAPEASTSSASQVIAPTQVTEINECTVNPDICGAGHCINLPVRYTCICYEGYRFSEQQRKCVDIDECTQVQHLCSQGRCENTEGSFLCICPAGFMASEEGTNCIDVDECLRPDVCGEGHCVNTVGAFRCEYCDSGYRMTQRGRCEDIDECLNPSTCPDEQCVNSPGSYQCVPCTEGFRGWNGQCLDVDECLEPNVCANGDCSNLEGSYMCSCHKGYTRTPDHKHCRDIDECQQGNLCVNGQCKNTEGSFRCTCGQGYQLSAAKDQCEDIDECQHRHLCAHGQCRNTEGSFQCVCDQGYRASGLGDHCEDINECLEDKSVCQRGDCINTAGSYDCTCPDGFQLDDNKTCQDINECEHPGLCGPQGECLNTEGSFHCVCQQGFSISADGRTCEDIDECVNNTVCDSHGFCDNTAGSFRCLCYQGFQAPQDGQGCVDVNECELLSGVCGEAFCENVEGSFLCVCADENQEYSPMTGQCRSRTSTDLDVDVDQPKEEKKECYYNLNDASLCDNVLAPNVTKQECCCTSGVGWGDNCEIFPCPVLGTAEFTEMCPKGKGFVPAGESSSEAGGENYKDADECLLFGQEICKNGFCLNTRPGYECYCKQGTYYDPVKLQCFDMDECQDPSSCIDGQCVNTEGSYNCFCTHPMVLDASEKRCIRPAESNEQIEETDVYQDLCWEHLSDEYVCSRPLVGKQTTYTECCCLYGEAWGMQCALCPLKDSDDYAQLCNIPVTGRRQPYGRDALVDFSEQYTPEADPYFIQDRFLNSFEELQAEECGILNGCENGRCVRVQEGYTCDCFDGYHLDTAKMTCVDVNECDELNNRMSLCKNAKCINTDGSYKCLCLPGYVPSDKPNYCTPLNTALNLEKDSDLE
T1 sequence (P01137 30-390 limits assumed, chain 2 of 2): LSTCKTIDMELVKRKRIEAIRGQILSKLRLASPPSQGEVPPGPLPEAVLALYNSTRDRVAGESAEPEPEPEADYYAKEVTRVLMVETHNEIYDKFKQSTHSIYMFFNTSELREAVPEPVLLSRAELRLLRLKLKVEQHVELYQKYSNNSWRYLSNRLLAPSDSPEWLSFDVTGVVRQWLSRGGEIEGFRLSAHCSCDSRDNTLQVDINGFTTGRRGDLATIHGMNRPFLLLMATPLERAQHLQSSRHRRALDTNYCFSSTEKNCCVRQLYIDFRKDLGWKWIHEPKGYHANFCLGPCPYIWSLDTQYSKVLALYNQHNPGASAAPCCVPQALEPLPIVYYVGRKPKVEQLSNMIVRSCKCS
Method: (§1) For solution equilibrium titration-based binding assays, protein complexes that comprise one of the presenting molecules such as those shown above may be employed as antigen (presenting molecule-TGFβ1 complex, or an LLC). Test antibodies are allowed to form antigen-antibody complex in solution. Antigen-antibody reaction mixtures are incubated to allow an equilibrium to be reached; the amount of the antigen-antibody complex present in the assay reactions can be measured by suitable means well known in the art. As compared to BLI-based assays, SET-based assays are less affected by on/off rates of the antigen-antibody complex, allowing sensitive detection of very high affinity interactions.

[2] = biological target: T2, hLRRC33-proTGFβ1 (human, UniProt Q86YC3 19-650; P01137 30-390, limits assumed); assay: MSD-SET, hIgG4
T2 construct: LLC as m1; Same id used for the cell-surface complex in reporter assays; also called human LRRC33-proTGFβ1 complex; LRRC33-ProTGFb1
T2 sequence (Q86YC3 19-650 limits assumed, chain 1 of 2): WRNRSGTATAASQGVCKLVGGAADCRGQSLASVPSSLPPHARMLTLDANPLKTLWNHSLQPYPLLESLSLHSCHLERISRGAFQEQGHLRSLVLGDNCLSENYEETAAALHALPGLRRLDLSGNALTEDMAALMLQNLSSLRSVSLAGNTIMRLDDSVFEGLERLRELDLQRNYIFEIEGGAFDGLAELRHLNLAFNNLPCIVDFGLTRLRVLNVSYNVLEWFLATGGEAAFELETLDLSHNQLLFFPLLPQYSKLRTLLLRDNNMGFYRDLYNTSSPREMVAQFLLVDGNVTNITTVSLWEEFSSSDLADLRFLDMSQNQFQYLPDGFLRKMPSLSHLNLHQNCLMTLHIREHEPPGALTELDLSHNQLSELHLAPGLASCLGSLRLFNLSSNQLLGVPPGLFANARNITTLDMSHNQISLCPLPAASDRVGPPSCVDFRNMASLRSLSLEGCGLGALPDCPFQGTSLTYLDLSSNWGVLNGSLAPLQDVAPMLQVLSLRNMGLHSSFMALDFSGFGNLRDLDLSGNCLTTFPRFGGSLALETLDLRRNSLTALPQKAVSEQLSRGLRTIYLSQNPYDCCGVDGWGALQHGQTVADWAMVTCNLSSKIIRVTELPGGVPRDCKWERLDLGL
T2 sequence (P01137 30-390 limits assumed, chain 2 of 2): as the sequence (P01137 30-390 limits assumed, chain 2 of 2) above
Method: as §1

[3] = biological target: T3, hLTBP3-proTGFβ1 (human, UniProt Q9NS15 44-1303; P01137 30-390, limits assumed); assay: MSD-SET, hIgG4
T3 construct: LLC as m1; Same id used for the cell-made complex in reporter assays; also called human LTBP3-proTGFβ1 complex; LTBP3-ProTGFb1
T3 sequence (Q9NS15 44-1303 limits assumed, chain 1 of 2): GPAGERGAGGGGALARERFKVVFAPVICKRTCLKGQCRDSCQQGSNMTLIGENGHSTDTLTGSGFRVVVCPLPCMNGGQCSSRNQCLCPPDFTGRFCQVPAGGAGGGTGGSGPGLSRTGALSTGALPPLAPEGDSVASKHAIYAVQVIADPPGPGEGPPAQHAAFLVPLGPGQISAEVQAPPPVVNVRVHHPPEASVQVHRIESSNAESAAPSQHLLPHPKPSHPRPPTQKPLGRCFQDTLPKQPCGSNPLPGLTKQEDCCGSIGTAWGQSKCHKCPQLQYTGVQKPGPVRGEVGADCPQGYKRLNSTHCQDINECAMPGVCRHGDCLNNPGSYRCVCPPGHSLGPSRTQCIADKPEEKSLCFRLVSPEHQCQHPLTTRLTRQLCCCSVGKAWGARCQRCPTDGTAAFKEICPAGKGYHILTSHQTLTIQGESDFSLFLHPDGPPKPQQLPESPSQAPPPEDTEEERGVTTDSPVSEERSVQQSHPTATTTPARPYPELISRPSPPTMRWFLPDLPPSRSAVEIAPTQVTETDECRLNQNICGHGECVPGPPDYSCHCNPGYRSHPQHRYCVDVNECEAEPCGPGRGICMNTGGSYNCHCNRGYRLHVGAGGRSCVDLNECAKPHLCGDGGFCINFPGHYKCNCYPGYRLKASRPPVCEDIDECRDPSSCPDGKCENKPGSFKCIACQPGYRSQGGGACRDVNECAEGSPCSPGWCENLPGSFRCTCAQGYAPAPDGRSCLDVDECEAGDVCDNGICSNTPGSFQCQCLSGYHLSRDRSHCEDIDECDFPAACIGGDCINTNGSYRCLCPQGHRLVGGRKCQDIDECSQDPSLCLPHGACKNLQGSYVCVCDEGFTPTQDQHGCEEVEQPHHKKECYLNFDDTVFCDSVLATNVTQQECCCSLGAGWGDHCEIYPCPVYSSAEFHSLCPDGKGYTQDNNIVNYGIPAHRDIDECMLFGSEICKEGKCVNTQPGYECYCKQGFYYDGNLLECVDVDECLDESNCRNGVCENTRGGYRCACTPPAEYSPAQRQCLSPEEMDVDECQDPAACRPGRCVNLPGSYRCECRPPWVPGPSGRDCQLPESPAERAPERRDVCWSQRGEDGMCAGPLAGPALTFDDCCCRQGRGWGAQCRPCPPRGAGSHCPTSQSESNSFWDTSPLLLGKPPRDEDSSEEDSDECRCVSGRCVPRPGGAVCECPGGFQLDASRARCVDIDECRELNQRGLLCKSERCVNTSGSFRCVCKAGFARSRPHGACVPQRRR
T3 sequence (P01137 30-390 limits assumed, chain 2 of 2): as the sequence (P01137 30-390 limits assumed, chain 2 of 2) above
Method: as §1

[4] = biological target: T4, hGARP-proTGFβ1 (human, UniProt Q14392 18-627; P01137 30-390, limits assumed); assay: MSD-SET, hIgG4
T4 construct: LLC as m1; Same id used for the cell-surface complex in reporter assays; also called human GARP-proTGFβ1 complex; GARP-ProTGFb1
T4 sequence (Q14392 18-627 limits assumed, chain 1 of 2): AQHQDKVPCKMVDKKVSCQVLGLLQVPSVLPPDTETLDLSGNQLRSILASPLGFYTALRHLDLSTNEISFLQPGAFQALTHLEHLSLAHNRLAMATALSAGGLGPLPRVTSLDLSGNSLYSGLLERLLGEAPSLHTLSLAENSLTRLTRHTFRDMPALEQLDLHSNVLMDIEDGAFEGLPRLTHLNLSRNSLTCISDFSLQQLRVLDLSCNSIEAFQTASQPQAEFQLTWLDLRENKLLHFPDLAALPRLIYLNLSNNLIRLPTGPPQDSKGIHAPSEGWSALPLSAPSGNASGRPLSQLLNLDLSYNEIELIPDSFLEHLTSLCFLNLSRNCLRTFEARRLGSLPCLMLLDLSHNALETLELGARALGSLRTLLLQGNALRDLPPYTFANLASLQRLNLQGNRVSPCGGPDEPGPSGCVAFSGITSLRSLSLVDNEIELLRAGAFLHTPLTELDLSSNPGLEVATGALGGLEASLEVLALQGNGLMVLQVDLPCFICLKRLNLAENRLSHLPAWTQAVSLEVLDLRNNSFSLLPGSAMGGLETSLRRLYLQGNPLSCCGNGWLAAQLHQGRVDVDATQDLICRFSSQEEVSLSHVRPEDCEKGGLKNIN
T4 sequence (P01137 30-390 limits assumed, chain 2 of 2): as the sequence (P01137 30-390 limits assumed, chain 2 of 2) above
Method: as §1

[5] = biological target: T1, hLTBP1-proTGFβ1; assay: BLI (Octet)
[6] = biological target: T2, hLRRC33-proTGFβ1; assay: BLI (Octet)
[7] = biological target: T3, hLTBP3-proTGFβ1; assay: BLI (Octet)
[8] = biological target: T4, hGARP-proTGFβ1; assay: BLI (Octet)
[9] = biological target: T1, hLTBP1-proTGFβ1; assay: cell-based or functional assay
[10] = biological target: T2, hLRRC33-proTGFβ1; assay: cell-based or functional assay
[11] = biological target: T3, hLTBP3-proTGFβ1; assay: cell-based or functional assay
[12] = biological target: T4, hGARP-proTGFβ1; assay: cell-based or functional assay

Kd [1]: 0.011 nM
Kd [2]: 0.046 nM
Kd [3]: 0.007 nM
Kd [4]: 0.0078 nM
Kd [5]: 0.179 nM
Kd [6]: 0.339 nM
Kd [7]: 0.111 nM
Kd [8]: 0.265 nM
IC50, reporter cell assay [9]: 1.6 nM
IC50, reporter cell assay [10]: 0.7 nM
IC50, reporter cell assay [11]: 1.1 nM
IC50, reporter cell assay [12]: 0.2 nM
B1: Ab33 (antibody, V domains shown)
VH: EVQLVESGGGLVQPGGSLRLSCAASGFTFSSFSMNWVRQAPGKGLEWVSYISPSADTIYYADSVKGRFTISRDNAKNTLYLQMNSLRAEDTAVYYCAHGVLDYGDMLDPWGQGTLVTVSS
VL: DIQMTQSPSSLSASVGDRVTITCQASQDITNYLNWYQQKPGKAPKLLIYDASNLETGVPSRFSGSGSGTDFTFTISSLQPEDIATYYCQQADNHPPWTFGGGTKVEIK

Kd [5]: 0.417 nM
Kd [6]: 0.455 nM
Kd [7]: 0.468 nM
Kd [8]: 1.34 nM
IC50, reporter cell assay [9]: 0.8 nM
IC50, reporter cell assay [10]: 0.6 nM
IC50, reporter cell assay [11]: 0.9 nM
IC50, reporter cell assay [12]: 0.3 nM
B2: Ab23 (antibody, V domains shown)
VH: B1 VH with H98R
VL: B1 VL

Kd [1]: 0.012 nM
Kd [2]: 0.043 nM
Kd [3]: 0.011 nM
Kd [4]: 0.0055 nM
Kd [5]: 0.189 nM
Kd [6]: 0.302 nM
Kd [7]: 0.121 nM
Kd [8]: 0.307 nM
IC50, reporter cell assay [9]: 0.5 nM
IC50, reporter cell assay [10]: 0.5 nM
IC50, reporter cell assay [11]: 0.8 nM
IC50, reporter cell assay [12]: 0.3 nM
B3: Ab29 (antibody, V domains shown)
VH: B1 VH with G16R, S33A, S54D, D56S, D62G, T78S, A97V, H98R, G99A
VL: B1 VL

Kd [1]: 0.031 nM
Kd [2]: 0.14 nM
Kd [3]: 0.026 nM
Kd [4]: 0.022 nM
Kd [5]: 0.332 nM
Kd [6]: 0.535 nM
Kd [7]: 0.261 nM
Kd [8]: 0.833 nM
B4: Ab30 (antibody, V domains shown)
VH: B1 VH with N35D, S54D, D56S, T78S, H98R, V100T
VL: B1 VL

Kd [1]: 0.05 nM
Kd [2]: 0.2 nM
Kd [3]: 0.033 nM
Kd [4]: 0.027 nM
Kd [5]: 0.318 nM
Kd [6]: 0.415 nM
Kd [7]: 0.329 nM
Kd [8]: 0.974 nM
B5: Ab22 (antibody, V domains shown)
VH: B1 VH with S30G, S52H, P53S, S54D, D56S, T78S, H98R
VL: B1 VL

Kd [1]: 4.6 nM
Kd [2]: 2.1 nM
Kd [3]: 5.5 nM
Kd [4]: 2.5 nM
IC50, reporter cell assay [9]: 5.2 nM
IC50, reporter cell assay [10]: 3.5 nM
IC50, reporter cell assay [11]: 5.6 nM
IC50, reporter cell assay [12]: 0.8 nM
B6: Ab4 (antibody, V domains shown)
VH: B1 VH with F32Y, P53S, A55S, D56S, T78S, H98R
VL: B1 VL

Kd [1]: 0.037 nM
Kd [2]: 0.087 nM
Kd [3]: 0.026 nM
Kd [4]: 0.015 nM
Kd [5]: 0.269 nM
Kd [6]: 0.698 nM
Kd [7]: 0.215 nM
Kd [8]: 0.496 nM
B7: Ab32 (antibody, V domains shown)
VH: B1 VH with H98R, L101W, Y103M
VL: B1 VL

Kd [5]: 0.34 nM
Kd [6]: 0.409 nM
Kd [7]: 0.316 nM
Kd [8]: 0.797 nM
B8: Ab28 (antibody, V domains shown)
VH: B1 VH with N35D, S54D, D56S, T78S, A97V, H98R
VL: B1 VL

Kd [5]: 0.217 nM
Kd [6]: 0.409 nM
Kd [7]: 0.152 nM
Kd [8]: 0.488 nM
IC50, reporter cell assay [9]: 6.1 nM
IC50, reporter cell assay [10]: 0.7 nM
IC50, reporter cell assay [11]: 0.51 nM
IC50, reporter cell assay [12]: 0.4 nM
B9: Ab25 (antibody, V domains shown)
VH: B1 VH with S30G, N35D, S54D, D56S, T78S, H98R
VL: B1 VL
